According to the supplement of paper PMC12042874:
± gives the uncertainty stated by the source.

Experiment: amyloid nucleation score (Sup35N fusion, yeast selection) (log enrichment); library NNK1; higher = more nucleation; inactive = no reads after selection
Summary of the method: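 DiMSum was used to calculate nucleation scores as log enrichment of output over input reads, centred on the mode score of non-aggregating sequences. Sequences with fewer than 100 input reads were not scored. Input and output came from Illumina sequencing of plasmid inserts in psi-negative yeast expressing peptides of 20 random codons fused to Sup35N, induced 24 hours with 100 μM copper sulfate and then grown 7 days at 30°C on medium lacking adenine and uracil.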

| Substance | amyloid nucleation score |
| --- | --- |
| SVYRSVRGNRCWGLKIIMPG | -0.101 ± 1.1 |
| SVYSVAFR | 0.184 ± 0.78 |
| SVYTNVLDTTNQGTKQNGPR | 1.01 ± 0.47 |
| SWDPNVSFALL | 2.93 ± 0.25 |
| SWFKSWSPKALSARIGRVYL | -0.176 ± 0.55 |
| SWFSRMGTCYDFNSKWSCLL | 0.654 ± 0.66 |
| SWIANRRRFAL | 3.64 ± 0.15 |
| SWLDLNLIDHQAFAFSSFGL | -0.043 ± 0.45 |
| SWMKSLLFVFGLTCQMRECV | -0.544 ± 0.61 |
| SWQAVCAMSCCLW | 8.628 ± 0.051 |
| SWQPECCTVQTLSSKSEISH | -0.158 ± 1.6 |
| SWRFDCYDRTWYNMYLEHLS | 0.232 ± 0.23 |
| SWRLRIIGEWRAFGDNMDSR | 2.75 ± 0.15 |
| SWWEFECETS | inactive |
| SWYLMIKVIETVSGVTGWVG | 2.39 ± 0.12 |
| SWYVVG | -0.373 ± 0.97 |
| SYDSRNASLVIIISWVMQPL | 0.992 ± 0.16 |
| SYFRFVLYN | 0.052 ± 1.1 |
| SYGLCMMAFLSLDAS | 0.517 ± 0.28 |
| SYGWCCTNYNSFVWTYPLTK | 5.79 ± 0.06 |
| SYGYSMLAGVWT | 0.057 ± 1.1 |
| SYLGTHRFTECILDRVCTLQ | 0.125 ± 1.4 |

| Substance | amyloid nucleation score |
| --- | --- |
| SYLKS | -0.4 ± 0.63 |
| SYNDQSVAYCVLIAETVWYC | 7.742 ± 0.055 |
| SYPSGVLDSNNPVLARGLAQ | -0.227 ± 0.41 |
| SYPTALLKSVLFPLVVI | -0.463 ± 0.26 |
| SYSEFSVEGFKGHVGAYGG | -0.136 ± 0.29 |
| SYSEYPHVEYLLLFSMTQWN | 0.43 ± 0.34 |
| SYSFAWGS | 1.82 ± 0.45 |
| SYSSVVSVYFLQIYFF | 4.05 ± 0.054 |
| SYTVFCRVWYDSHRFM | -0.066 ± 0.45 |
| SYVFDKGFIVNVITRCRKKM | 1.44 ± 0.34 |
| SYVIGNTGGSIKSEARGWDI | 0.071 ± 0.35 |
| SYWCLRAYLRLWLL | -0.164 ± 0.42 |
| TADFLERRDMKYLHM | -0.361 ± 1.7 |
| TAIRLVQS | -0.283 ± 0.44 |
| TAMRSHLSVPSNVTLPCIKH | 0.082 ± 0.46 |
| TARFINVDVLSPW | 1.32 ± 0.28 |
| TARFLTKFAPGQSMNAYRCG | -0.033 ± 0.6 |
| TARYTGGNTNIRSGKFLVWI | 0.075 ± 0.35 |
| TAVTCLL | -0.175 ± 1.2 |
| TCDRVNAIVEFWRCR | 1.46 ± 0.12 |
| TCFGL | -0.702 ± 1.2 |
| TCGSYV | 0.215 ± 0.42 |

| Substance | amyloid nucleation score |
| --- | --- |
| TCRFIGEYLRIRYT | 0.367 ± 0.58 |
| TCTYVYFLCSSIYARNITFM | 8.838 ± 0.057 |
| TCVDAVVLM | 0.063 ± 0.62 |
| TDFMFFWGDFMVTYTAVVCR | -0.096 ± 0.44 |
| TDLAHLSVSMFDNFSRELVL | -0.323 ± 1.6 |
| TDLLWKTSLLPNVY | 1.71 ± 0.36 |
| TDNDLVHYCTM | 0.029 ± 0.59 |
| TDSSKGRGARRGGSNSSHSW | -0.419 ± 0.61 |
| TDWFSSMLEN | 0.291 ± 0.3 |
| TEAFRSRAFFGWWRSMCRRW | 0.112 ± 0.87 |
| TEFERFFKRDGYWGSRSYSR | 0.221 ± 0.59 |
| TENCDLCKQLAAVLC | -0.812 ± 0.93 |
| TEQYCS | 0.404 ± 1 |
| TFACGKYVVPFCIYVDR | -0.059 ± 0.34 |
| TFEALLTVDSYYSFSLVP | 1.21 ± 0.4 |
| TFGGHNVAGASMHGSFGGSL | 0.242 ± 0.3 |
| TFHAHTLWQGAQVIRQSETR | 0.053 ± 0.47 |
| TFIKNVTNRVHYGNALTHLG | -0.204 ± 0.66 |
| TFKRYI | 1.28 ± 0.56 |
| TFLSTLIALISRFSRSESWM | 1.24 ± 0.93 |
| TFLWC | 0.462 ± 0.4 |
